Measured values: article PMC4622529
“And” between values parts separate entries of the source, which are not always exact repeats. Equal values may be shown once. Read-outs that look alike come from different tables or passages of the source. Blank lines part the entries; values can stand above or below the molecule they belong to.

Tests used:
Assay in all cases: SPR
human IgG3 (human) = molecular target: human IgG3 (human)
human IgG4 (human) = molecular target: human IgG4 (human)
mouse IgG2a (mouse) = molecular target: mouse IgG2a (mouse)
[1] = molecular target: trastuzumab hIgG1 AAA:N434H E:R heterodimer (human)
[2] = molecular target: trastuzumab hIgG1 AAA:N434Y E:R heterodimer (human)
[3] = molecular target: trastuzumab hIgG1 AAA:WT E:R heterodimer (human)
[4] = molecular target: trastuzumab hIgG1 I253A:WT E:R heterodimer (human)
[5] = molecular target: trastuzumab hIgG1 N434H (homodimer) (human)
[6] = molecular target: trastuzumab hIgG1 N434Y (homodimer) (human)
[7] = molecular target: trastuzumab hIgG1 N434Y R arm (parental) (human)
[8] = molecular target: trastuzumab hIgG1 WT E arm (parental) (human)
[9] = molecular target: trastuzumab hIgG1 WT R arm (parental) (human)
[10] = molecular target: trastuzumab hIgG1 WT:WT E:R heterodimer (human)
[11] = molecular target: trastuzumab hIgG1 wild type (homodimer) (human)
[12] = molecular target: trastuzumab hIgG1 N434Y (homodimer) (human); remark: listed apart in the source
[13] = molecular target: mouse FcRn (FcRn/β2m heterodimer, soluble extracellular domain) (mouse) (UniProt Q61559)
[14] = molecular target: rat FcRn (FcRn/β2m heterodimer, soluble extracellular domain) (rat) (UniProt P13599)
[15] = molecular target: mouse FcRn (FcRn/β2m heterodimer, soluble extracellular domain) (mouse) (UniProt Q61559); remark: listed apart in the source
[16] = molecular target: rat FcRn (FcRn/β2m heterodimer, soluble extracellular domain) (rat) (UniProt P13599); remark: listed apart in the source
[17] = molecular target: mouse FcRn (FcRn/β2m heterodimer, soluble extracellular domain) (mouse) (UniProt Q61559); remark: listed apart in the source
[18] = molecular target: mouse FcRn (FcRn/β2m heterodimer, soluble extracellular domain) (mouse) (UniProt Q61559); remark: listed apart in the source
[19] = molecular target: rat FcRn (FcRn/β2m heterodimer, soluble extracellular domain) (rat) (UniProt P13599); remark: listed apart in the source
[20] = molecular target: rat IgG2a (panel of unrelated mAbs of subtype rIgG2a) (rat)
[21] = molecular target: cynomolgus monkey IgG1 (cynomolgus monkey)
[22] = molecular target: cynomolgus monkey IgG2 (cynomolgus monkey)
[23] = molecular target: human IgG1 (category of several hIgG1 molecules) (human)
[24] = molecular target: human IgG2 (category of several hIgG2 molecules) (human)
mouse IgG1 (mouse) = molecular target: mouse IgG1 (mouse)
mouse IgG2b (mouse) = molecular target: mouse IgG2b (mouse)
mouse IgG3 (mouse) = molecular target: mouse IgG3 (mouse)
rat IgG1 (rat) = molecular target: rat IgG1 (rat)
[25] = molecular target: rat IgG2a (panel of unrelated mAbs of subtype rIgG2a) (rat); remark: listed apart in the source
rat IgG2b (rat) = molecular target: rat IgG2b (rat)
rat IgG2c (rat) = molecular target: rat IgG2c (rat)
[26] = molecular target: rhesus monkey IgG1 (rhesus monkey)
[27] = molecular target: rhesus monkey IgG2 (rhesus monkey)

Molecule: human FcRn (FcRn/β2m heterodimer, soluble extracellular domain) (from UniProt P55899;P61769) (receptor)
- Kd (human IgG3 (human)): 585 nM and 898 nM
- Kd (human IgG4 (human)): 717 nM and 973 nM

Molecule: mouse FcRn (FcRn/β2m heterodimer, soluble extracellular domain) (from UniProt Q61559;P01887) (receptor)
- Kd (human IgG3 (human)): 230 nM and 353 nM and 328 nM
- Kd (human IgG4 (human)): 116 nM and 197 nM and 183 nM
- Kd (mouse IgG2a (mouse)): 490 nM and 931 nM
- stoichiometry N [1]: 1 FcRn per IgG
- Kd [2]: 0.47 nM
- stoichiometry N [2]: 1 FcRn per IgG
- Kd [3]: 58 nM
- stoichiometry N [3]: 1 FcRn per IgG
- Kd [4]: 58 nM
- stoichiometry N [5]: 2 FcRn per IgG
- Kd [6]: 0.47 nM
- stoichiometry N [6]: 2 FcRn per IgG
- Kd [7]: 0.47 nM
- Kd [8]: 58 nM
- Kd [9]: 58 nM
- Kd [10]: 58 nM
- Kd [11]: 58 nM
- stoichiometry N [11]: 2 FcRn per IgG
- Kd [12]: 44.1 nM

Molecule: trastuzumab hIgG1 AAA:N434Y E:R heterodimer (antibody)
- Kd [13]: 0.35 nM
- Kd [14]: 3.5 nM
- Kd [17]: 66 nM
- Kd [18]: 50 nM and 52 nM
- Kd [15]: 0.28 nM
- Kd [16]: 2.7 nM

Molecule: trastuzumab hIgG1 AAA:WT E:R heterodimer (antibody)
- Kd [13]: 49 nM
- Kd [14]: 67 nM
- Kd [15]: 54 nM
- Kd [16]: 46 nM

Molecule: trastuzumab hIgG1 N434H (homodimer) (antibody)
- Kd [15]: 3.7 nM
- Kd [16]: 5.4 nM

Molecule: trastuzumab hIgG1 N434Y (homodimer) (antibody)
- Kd [18]: 36 nM
- Kd [19]: 460 nM
- Kd [15]: 0.292 nM
- Kd [16]: 3.3 nM

B1: rat FcRn (FcRn/β2m heterodimer, soluble extracellular domain) (receptor)
chain 1: AEPRLPLMYHLAAVSDLSTGLPSFWATGWLGAQQYLTYNNLRQEADPCGAWIWENQVSWYWEKETTDLKSKEQLFLEAIRTLENQINGTFTLQGLLGCELAPDNSSLPTAVFALNGEEFMRFNPRTGNWSGEWPETDIVGNLWMKQPEAARKESEFLLTSCPERLLGHLERGRQNLEWKEPPSMRLKARPGNSGSSVLTCAAFSFYPPELKFRFLRNGLASGSGNCSTGPNGDGSFHAWSLLEVKRGDEHHYQCQVEHEGLAQPLTVDL
chain 2: IQKTPQIQVYSRHPPENGKPNFLNCYVSQFHPPQIEIELLKNGKKIPNIEMSDLSFSKDWSFYILAHTEFTPTETDVYACRVKHVTLKEPKTVTWDRDM
- Kd [20]: 44 nM and 69 nM and 55 nM
- koff [20]: 0.0119 s⁻¹
- kon [20]: 220000 M⁻¹ s⁻¹
- Kd [21]: 88 nM and 123 nM
- Kd [22]: 38 nM and 51 nM
- Kd [23]: 68 nM and 135 nM
- Kd [24]: 53 nM and 93 nM
- Kd (human IgG3 (human)): 313 nM and 357 nM and 366 nM
- Kd (human IgG4 (human)): 123 nM and 149 nM and 145 nM
- Kd (mouse IgG1 (mouse)): 501 nM and 567 nM
- Kd (mouse IgG2a (mouse)): 97 nM and 150 nM
- Kd (mouse IgG2b (mouse)): 332 nM and 368 nM
- Kd (mouse IgG3 (mouse)): 183 nM
- Kd (rat IgG1 (rat)): 285 nM and 329 nM
- Kd [25]: 45 nM and 76 nM
- Kd (rat IgG2b (rat)): 186 nM and 248 nM
- Kd (rat IgG2c (rat)): 452 nM and 617 nM
- Kd [26]: 88 nM and 119 nM
- Kd [27]: 41 nM and 51 nM

Other lines, results leading:

- Kd (human IgG3 (human)): 188 nM and 213 nM and 387 nM
- Kd (human IgG4 (human)): 258 nM and 266 nM and 450 nM
Molecule: cynomolgus monkey FcRn (FcRn/β2m heterodimer, soluble extracellular domain) (from UniProt Q8SPV9;Q8SPW0) (receptor)

- Kd [5]: 9.9 nM
- Kd [6]: 4.5 nM
- Kd [11]: 84 nM
- Kd [12]: 455 nM
Molecule: rat FcRn (FcRn/β2m heterodimer, soluble extracellular domain) (from UniProt P13599;P07151) (receptor)

- Kd [13]: 3.6 nM
- Kd [14]: 8 nM
- Kd [15]: 3.8 nM
- Kd [16]: 4.9 nM
Molecule: trastuzumab hIgG1 AAA:N434H E:R heterodimer (antibody)

- Kd [15]: 48 nM
- Kd [16]: 49 nM
Molecule: trastuzumab hIgG1 wild type (homodimer) (antibody)
